How the values were obtained:
LdG5K [1] = biological target: T1, LdG5K (Leishmania donovani, UniProt A0A0R6Y3I5); assay: PK/LDH-coupled NADH oxidation assay, single point; assay type: biochemical; details: 1 mM compound; 100 mM Na glutamate, 5 mM ATP, 5 mM MgCl2, pH 7.4, 25 °C
T1 construct: gene G5K; tetramer about 105 kDa
T1 sequence (A0A0R6Y3I5 1-263): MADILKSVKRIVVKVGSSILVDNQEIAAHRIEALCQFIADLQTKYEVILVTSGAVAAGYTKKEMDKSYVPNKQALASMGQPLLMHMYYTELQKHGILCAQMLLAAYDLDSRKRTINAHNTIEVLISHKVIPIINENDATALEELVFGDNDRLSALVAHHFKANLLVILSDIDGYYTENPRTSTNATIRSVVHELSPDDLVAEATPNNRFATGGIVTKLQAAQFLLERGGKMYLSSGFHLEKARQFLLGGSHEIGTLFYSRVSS
Description: PK/LDH-coupled NADH oxidation assay, single point on LdG5K

LdG5K [2] = biological target: T1, LdG5K; assay: PK/LDH-coupled NADH oxidation assay; assay type: biochemical
Description: (§1) PK/LDH-coupled NADH oxidation assay on LdG5K

[3] = substrate: N[C@@H](CCC(=O)O)C(=O)O; assay: PK/LDH-coupled NADH oxidation assay; assay type: biochemical, Leishmania donovani; details: 5 mM ATP, 5 mM MgCl2, pH 7.4, 25 °C, no proline
Description: as §1

[4] = substrate: Nc1ncnc2c1ncn2[C@@H]1O[C@H](COP(=O)(O)OP(=O)(O)OP(=O)(O)O)[C@@H](O)[C@H]1O; assay: PK/LDH-coupled NADH oxidation assay; assay type: biochemical, Leishmania donovani; details: 150 mM Na glutamate, 5 mM MgCl2, pH 7.4, 25 °C
Description: as §1

[5] = substrate: N[C@@H](CCC(=O)O)C(=O)O; assay: PK/LDH-coupled NADH oxidation assay, Hill fit; assay type: biochemical, Leishmania donovani; details: no proline, Hill slope 0.94 ± 0.09, pH 7.4, 25 °C
[6] = biological target: the molecule itself; assay: SEC; Superdex 200 H/R 10/30, 50 mM Tris-HCl pH 7.2, 0.15 M NaCl, 0.5 mL/min, room temperature; mass estimated against protein standards; no proline

## O=C(O)[C@H]1CN[C@H](C(=O)O)C1 [L‐trans‐pyrrolidine‐2,4‐dicarboxylic acid]
LdG5K [1]
  LdG5K activity (%) with 1 mM: 84%

## O=C(O)[C@@H]1C[C@H](O)CN1 [Cis‐4‐hydroxy‐L‐proline]
LdG5K [1]
  LdG5K activity (%) with 1 mM: 87%

## C[C@@]1(C(=O)O)CCCN1 [α‐methyl‐L‐proline]
LdG5K [1]
  LdG5K activity (%) with 1 mM: 82%

## O=C(O)[C@@H]1CCN1 [L‐azetidine‐2‐carboxylic acid]
LdG5K [2]
  IC50: 730 ± 70 µM

## O=C(O)C1C=CCN1 (racemic) [3,4‐dehydro‐D,L‐proline]
LdG5K [2]
  IC50: 490 ± 20 µM

## O=C(O)[C@@H]1C[C@@H](O)CN1 [Trans‐4‐hydroxy‐L‐proline]
LdG5K [1]
  LdG5K activity (%) with 1 mM: 89%

## O=C(O)[C@@H]1CCCN1 [L‐proline]
LdG5K [2]
  IC50: 390 ± 80 µM

## O=C(O)[C@@H]1CSCN1 [L‐4‐thioproline]
LdG5K [2]
  IC50: 1800 ± 200 µM

B1: Leishmania donovani glutamate 5-kinase (enzyme, UniProt A0A0R6Y3I5 1-263, looked up)
chain: MADILKSVKRIVVKVGSSILVDNQEIAAHRIEALCQFIADLQTKYEVILVTSGAVAAGYTKKEMDKSYVPNKQALASMGQPLLMHMYYTELQKHGILCAQMLLAAYDLDSRKRTINAHNTIEVLISHKVIPIINENDATALEELVFGDNDRLSALVAHHFKANLLVILSDIDGYYTENPRTSTNATIRSVVHELSPDDLVAEATPNNRFATGGIVTKLQAAQFLLERGGKMYLSSGFHLEKARQFLLGGSHEIGTLFYSRVSS
notes: theoretical Mr 29.033 kDa; Cloned through BamHI/EcoRI into a modified pGEX-6P-1 with an in-frame N-terminal His-GST tag; also called LdG5K; G5K; source: E. coli C41(DE3) pLysS, purified (glutathione resin, on-column cleavage by PreScission protease); not shown: His, N-terminal, cleaved; GST, N-terminal, cleaved
[3]
  Km: 10 ± 0.7 mM
  kcat: 12.8 ± 0.3 s⁻¹
  kcat/Km: 1280 M⁻¹ s⁻¹
[4]
  Km: 0.6 ± 0.07 mM
  kcat: 11.7 ± 0.3 s⁻¹
  kcat/Km: 19500 M⁻¹ s⁻¹
[5]
  K0.5: 19.0 ± 2.9 mM
  kcat: 13.5 ± 0.6 s⁻¹
[6]
  stoichiometry N: 4
